11 molecules from US20180155451A1 (published 2018) can be followed below.

The chains are these.
B1: GpH7-A5/GpH7-B3 variant S337_02A/GpL16-k0 (antibody, human IgG1, kappa)
heavy 1: not shown
heavy 2: not shown
light: DIVMTQSPLSLPVTPGEPASISCQASESLVHSNRNTYLHWYLQKPGQSPQLLIYKVSNRFSGVPDRFSGSGSGTDFTLKISRVEAEDVGVYYCSQNTHVPPTFGQGTKVEIERTVAAPSVFIFPPSDEQLKSGTASVVCLLNNFYPREAKVQWKVDNALQSGNSQESVTEQDSKDSTYSLSSTLTLSKADYEKHKVYACEVTHQGLSSPVTKSFNRGEC
notes: mutation in one H chain only; also called He Ab S337_02A; S337A
B2: GpH7-A5/GpH7-B3 variant T335_05P/GpL16-k0 (antibody, human IgG1, kappa)
heavy 1: not shown
heavy 2: not shown
light: DIVMTQSPLSLPVTPGEPASISCQASESLVHSNRNTYLHWYLQKPGQSPQLLIYKVSNRFSGVPDRFSGSGSGTDFTLKISRVEAEDVGVYYCSQNTHVPPTFGQGTKVEIERTVAAPSVFIFPPSDEQLKSGTASVVCLLNNFYPREAKVQWKVDNALQSGNSQESVTEQDSKDSTYSLSSTLTLSKADYEKHKVYACEVTHQGLSSPVTKSFNRGEC
notes: mutation in one H chain only; also called He Ab T335_05P; T335P
B3: GpH7-A5/GpH7-B3 variant T335_04F/GpL16-k0 (antibody, human IgG1, kappa)
heavy 1: not shown
heavy 2: not shown
light: DIVMTQSPLSLPVTPGEPASISCQASESLVHSNRNTYLHWYLQKPGQSPQLLIYKVSNRFSGVPDRFSGSGSGTDFTLKISRVEAEDVGVYYCSQNTHVPPTFGQGTKVEIERTVAAPSVFIFPPSDEQLKSGTASVVCLLNNFYPREAKVQWKVDNALQSGNSQESVTEQDSKDSTYSLSSTLTLSKADYEKHKVYACEVTHQGLSSPVTKSFNRGEC
notes: mutation in one H chain only; also called He Ab T335_04F; T335F
B4: GpH7-A5/GpH7-B3 variant S337_04F/GpL16-k0 (antibody, human IgG1, kappa)
heavy 1: not shown
heavy 2: not shown
light: DIVMTQSPLSLPVTPGEPASISCQASESLVHSNRNTYLHWYLQKPGQSPQLLIYKVSNRFSGVPDRFSGSGSGTDFTLKISRVEAEDVGVYYCSQNTHVPPTFGQGTKVEIERTVAAPSVFIFPPSDEQLKSGTASVVCLLNNFYPREAKVQWKVDNALQSGNSQESVTEQDSKDSTYSLSSTLTLSKADYEKHKVYACEVTHQGLSSPVTKSFNRGEC
notes: mutation in one H chain only; also called He Ab S337_04F; S337F
B5: GpH7-A5/GpH7-B3 variant T335_08L/GpL16-k0 (antibody, human IgG1, kappa)
heavy 1: not shown
heavy 2: not shown
light: DIVMTQSPLSLPVTPGEPASISCQASESLVHSNRNTYLHWYLQKPGQSPQLLIYKVSNRFSGVPDRFSGSGSGTDFTLKISRVEAEDVGVYYCSQNTHVPPTFGQGTKVEIERTVAAPSVFIFPPSDEQLKSGTASVVCLLNNFYPREAKVQWKVDNALQSGNSQESVTEQDSKDSTYSLSSTLTLSKADYEKHKVYACEVTHQGLSSPVTKSFNRGEC
notes: mutation in one H chain only; also called He Ab T335_08L; T335L
B6: GpH7-A5/GpH7-B3 variant S337_10E/GpL16-k0 (antibody, human IgG1, kappa)
heavy 1: not shown
heavy 2: not shown
light: DIVMTQSPLSLPVTPGEPASISCQASESLVHSNRNTYLHWYLQKPGQSPQLLIYKVSNRFSGVPDRFSGSGSGTDFTLKISRVEAEDVGVYYCSQNTHVPPTFGQGTKVEIERTVAAPSVFIFPPSDEQLKSGTASVVCLLNNFYPREAKVQWKVDNALQSGNSQESVTEQDSKDSTYSLSSTLTLSKADYEKHKVYACEVTHQGLSSPVTKSFNRGEC
notes: mutation in one H chain only; also called He Ab S337_10E; S337E
B7: GpH7-A5/GpH7-B3 variant S337_15Y/GpL16-k0 (antibody, human IgG1, kappa)
heavy 1: not shown
heavy 2: not shown
light: DIVMTQSPLSLPVTPGEPASISCQASESLVHSNRNTYLHWYLQKPGQSPQLLIYKVSNRFSGVPDRFSGSGSGTDFTLKISRVEAEDVGVYYCSQNTHVPPTFGQGTKVEIERTVAAPSVFIFPPSDEQLKSGTASVVCLLNNFYPREAKVQWKVDNALQSGNSQESVTEQDSKDSTYSLSSTLTLSKADYEKHKVYACEVTHQGLSSPVTKSFNRGEC
notes: mutation in one H chain only; also called He Ab S337_15Y; S337Y
B8: GpH7-A5/GpH7-B3 variant T335_09D/GpL16-k0 (antibody, human IgG1, kappa)
heavy 1: not shown
heavy 2: not shown
light: DIVMTQSPLSLPVTPGEPASISCQASESLVHSNRNTYLHWYLQKPGQSPQLLIYKVSNRFSGVPDRFSGSGSGTDFTLKISRVEAEDVGVYYCSQNTHVPPTFGQGTKVEIERTVAAPSVFIFPPSDEQLKSGTASVVCLLNNFYPREAKVQWKVDNALQSGNSQESVTEQDSKDSTYSLSSTLTLSKADYEKHKVYACEVTHQGLSSPVTKSFNRGEC
notes: mutation in one H chain only; also called He Ab T335_09D; T335D
B9: GpH7-A5/GpH7-B3 variant T335_10E/GpL16-k0 (antibody, human IgG1, kappa)
heavy 1: not shown
heavy 2: not shown
light: DIVMTQSPLSLPVTPGEPASISCQASESLVHSNRNTYLHWYLQKPGQSPQLLIYKVSNRFSGVPDRFSGSGSGTDFTLKISRVEAEDVGVYYCSQNTHVPPTFGQGTKVEIERTVAAPSVFIFPPSDEQLKSGTASVVCLLNNFYPREAKVQWKVDNALQSGNSQESVTEQDSKDSTYSLSSTLTLSKADYEKHKVYACEVTHQGLSSPVTKSFNRGEC
notes: mutation in one H chain only; also called He Ab T335_10E; T335E
B10: GpH7-A5/GpH7-B3 variant S337_12R/GpL16-k0 (antibody, human IgG1, kappa)
heavy 1: not shown
heavy 2: not shown
light: DIVMTQSPLSLPVTPGEPASISCQASESLVHSNRNTYLHWYLQKPGQSPQLLIYKVSNRFSGVPDRFSGSGSGTDFTLKISRVEAEDVGVYYCSQNTHVPPTFGQGTKVEIERTVAAPSVFIFPPSDEQLKSGTASVVCLLNNFYPREAKVQWKVDNALQSGNSQESVTEQDSKDSTYSLSSTLTLSKADYEKHKVYACEVTHQGLSSPVTKSFNRGEC
notes: mutation in one H chain only; also called He Ab S337_12R; S337R
B11: GpH7-A5/GpH7-B3 variant T335_12R/GpL16-k0 (antibody, human IgG1, kappa)
heavy 1: not shown
heavy 2: not shown
light: DIVMTQSPLSLPVTPGEPASISCQASESLVHSNRNTYLHWYLQKPGQSPQLLIYKVSNRFSGVPDRFSGSGSGTDFTLKISRVEAEDVGVYYCSQNTHVPPTFGQGTKVEIERTVAAPSVFIFPPSDEQLKSGTASVVCLLNNFYPREAKVQWKVDNALQSGNSQESVTEQDSKDSTYSLSSTLTLSKADYEKHKVYACEVTHQGLSSPVTKSFNRGEC
notes: mutation in one H chain only; also called He Ab T335_12R; T335R

The target in this experiment is T1, FcγRIa extracellular domain with C-terminal His tag (human, UniProt P12314 16-292).
T1 construct: extracellular domain; also called FcgRI; CD64; not shown: His tag at the C terminus
T1 sequence (P12314 16-292): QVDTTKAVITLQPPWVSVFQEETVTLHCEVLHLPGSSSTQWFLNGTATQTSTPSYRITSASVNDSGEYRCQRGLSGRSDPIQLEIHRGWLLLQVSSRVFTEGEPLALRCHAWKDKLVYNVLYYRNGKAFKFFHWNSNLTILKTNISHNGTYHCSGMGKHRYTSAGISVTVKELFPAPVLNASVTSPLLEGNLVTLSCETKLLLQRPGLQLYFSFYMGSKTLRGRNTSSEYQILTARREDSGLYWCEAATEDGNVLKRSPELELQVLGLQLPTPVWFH
Put plainly: SPR Biacore, relative FcγRIa binding vs GpH7-A5/GpH7-B3/GpL16-k0. Background: SPR reads the build-up and loss of mass on a sensor chip optically.
For B1, the He/Con_1a was 106 % of HeCon Ab (=100).

For B2, the He/Con_1a was 106 % of HeCon Ab (=100).

Regarding B3, the He/Con_1a is 105 % of HeCon Ab (=100).

With B4, the He/Con_1a was 106 % of HeCon Ab (=100).

For B5, the He/Con_1a is 115 % of HeCon Ab (=100).

Consider B6, for which the He/Con_1a was 106 % of HeCon Ab (=100).

Take B7: the He/Con_1a is 104 % of HeCon Ab (=100).

As to B8, the He/Con_1a is 108 % of HeCon Ab (=100).

Consider B9, for which the He/Con_1a was 109 % of HeCon Ab (=100).

As to B10, the He/Con_1a is 106 % of HeCon Ab (=100).

B11: the He/Con_1a is 113 % of HeCon Ab (=100).
